In the supplement of paper PMC10567573:
± gives the standard deviation.

Assay: protein stability index of a GFP-peptide fusion (GPS, HEK-293T) (PSI 1-6); higher = more stable
[1] = treatment: DMSO, c terminus: a fixed tail appended
[2] = treatment: MLN4924 1 uM, 8 h, c terminus: a fixed tail appended
[3] = treatment: DMSO, c terminus: native
[4] = treatment: MLN4924 1 uM, 8 h, c terminus: native
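Note: 24-mer peptide tiles fused after GFP, lentivirally expressed, FACS-sorted into six equal bins by GFP/DsRed ratio, decoded by Illumina sequencing, PSI is the read-weighted mean bin number.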

Sequence | protein stability index [1] | protein stability index [2] | protein stability index [3] | protein stability index [4]
SAVEGAPPARPRPRSPECRMIPGQ [IRX6] | 4.86 ± 0.24 | 4.96 ± 0.32 | – | –
SESQLASTESDKPTTGRVYESDSS [C18orf25] | 5.5 ± 0.15 | 5.44 ± 0.26 | – | –
IWEQRSATVVMMTKLEERSRVKCD [PTPRD] | 3.29 ± 0.27 | 3.26 ± 0.41 | – | –
IEVKTKGGSKYLIYRRYRQFHALQ [NCF4] | 2.22 ± 0.35 | 2.2 ± 0.33 | – | –
QAWFGFAGTPGYLSPEVLRKEAYG [CAMK2B] | 2.55 ± 0.22 | 2.76 ± 0.22 | – | –
MTEKQQEEAEWESINVLLMMHGLK [CEP70] | 2.62 ± 0.27 | 2.73 ± 0.22 | – | –
LSPDPEERPGAEGAPLLPPPLPPP [ACBD3] | 5.27 ± 0.15 | 5.32 ± 0.17 | – | –
AAEERALFTDRMATRSTTQSNRTS [WEE1] | 5.1 ± 0.2 | 5.17 ± 0.21 | – | –
PVDLNKILEDMRCQYEALVENNRR [KRT36] | 3.31 ± 0.3 | 3.23 ± 0.36 | – | –
MDPQNQHGSGSSLVVIQQPSLDSR [SPRY1] | 4.69 ± 0.096 | 4.65 ± 0.13 | – | –
ELFHTIDTHNTNNLDTEELCEYFS [NECAB1] | 3.41 ± 0.28 | 3.47 ± 0.1 | – | –
KAHETLHQSLSLASSPKGTIENIL [CDC25A] | 3.55 ± 0.5 | 3.59 ± 0.22 | – | –
VYIFATCLGLSYDGLLGDNQIMPK [MAGEA6] | 2.82 ± 0.52 | 2.44 ± 0.44 | – | –
RDYPSSRDTRDYAPPPRDYTYRDY [RBMX] | 2.87 ± 0.38 | 3.08 ± 0.35 | – | –
EASGYVDRDMFFKICESLNVPVDD [EFHC1] | 3.95 ± 0.29 | 4.17 ± 0.44 | – | –
SELCIWLGSQIKSLCNLEESITSA [FAM98B] | 1.97 ± 0.23 | 2.55 ± 0.18 | – | –
VCYTACATLKGPDSHYGTKGLKKV [BTBD1] | 3.06 ± 0.42 | 3.21 ± 0.23 | – | –
ELVGSGYRMSLVKRRFATGMYLVS [FCHO1] | 2.46 ± 0.64 | 2.26 ± 0.43 | – | –
GSAPNSPMALLTIGSSSEKEIDDV [TFE3] | 5.26 ± 0.28 | 5.55 ± 0.18 | – | –
PVHTTILNPHIHLMGDESACIAYI [CAMK2A] | 2.42 ± 0.17 | 2.42 ± 0.082 | – | –
RGHMPEWYTKSFGHLCAAEVVKIR [DLC1] | 2.08 ± 0.23 | 2.42 ± 0.32 | – | –
LDDEDDTSIGMPSLMYRSPPGAEE [RETREG3] | 5.44 ± 0.23 | 5.39 ± 0.26 | – | –
AQNDLDISRIKRGNTTLESTDTL [P2RY14] | – | – | 5.26 ± 0.17 | 5.25 ± 0.22

Sequence | protein stability index [1] | protein stability index [2] | protein stability index [3] | protein stability index [4]
TYKLKCKALQEENRDLRKASVTIQ [CCDC6] | 3.64 ± 0.3 | 3.7 ± 0.21 | – | –
SAERYNPRTNQWSPVVAMTSRRSG [KLHL20] | 4.22 ± 0.061 | 4.43 ± 0.16 | – | –
PQLKKESELPFVPNYLANPAFPFI [ANKRD40] | 2.82 ± 0.34 | 2.87 ± 0.085 | – | –
RMGLMKANHVFFLLYLLHILLLDG [FADS1] | 2.94 ± 0.83 | 2.68 ± 0.52 | – | –
DNLLRSTQKLSHSTKPSGSPLEEK [MATN2] | 5.31 ± 0.37 | 5.07 ± 0.37 | – | –
LFAGPHSTLTPPCSPPEDGLCPH [SNX8] | – | – | 3.79 ± 0.52 | 3.85 ± 0.22
SLQSCMHFQPNSPASDLEAALEAA [NANOGP8] | 4.6 ± 0.22 | 4.63 ± 0.27 | – | –
AEMSRVSIRILDELVLPFQELQID [HNF4A] | 2.67 ± 0.35 | 2.74 ± 0.23 | – | –
EEDFDSEQLSVLASCLQELFKAHF [INTS3] | 2.24 ± 0.078 | 2.49 ± 0.29 | – | –
AGDRFLEALGFSWHDTCFVCAICQ [PDLIM7] | 2.32 ± 0.4 | 2.52 ± 0.28 | – | –
LKLMDRHKKDCAREKPFKCQECGK [ZNF75A] | 3.74 ± 0.37 | 3.95 ± 0.28 | – | –
NAILQLVKKYKSMKLEKEEFVTLK [ESRRG] | 2.24 ± 0.37 | 2.29 ± 0.12 | – | –
YLYFLFCPTLIYRETYPRTPYVRW [SOAT2] | 2.67 ± 0.76 | 2.58 ± 0.29 | – | –
TKGHPRAVSQPFRLSSSLQGSAVT [CDC14A] | 3.49 ± 0.41 | 3.54 ± 0.28 | – | –
GWWKRLFTLKEEKPKMYFMTMIVS [ARL6IP1] | 2.95 ± 0.66 | 2.04 ± 0.57 | – | –
LLKITIPNAFIGSDVVDWLYHNVE [DVL3] | 2.31 ± 0.63 | 2.26 ± 0.28 | – | –
AIVSCTPVHLIDKLPLPVTIKSHL [RAB40C] | 2.18 ± 0.24 | 2.08 ± 0.19 | – | –
RVGKWHQDFPVKKRKKLSTWKQEL [ZNF75A] | 2.7 ± 0.29 | 2.92 ± 0.4 | – | –
PASTPSVLSSEQEFQMFPKSRLSS [ETS2] | 4.57 ± 0.21 | 4.57 ± 0.24 | – | –
DINLSVRKLLNRHNIVFGDYTWTE [TRIP13] | 2.28 ± 0.29 | 2.22 ± 0.4 | – | –
HEGEDQFLSLEASTETLVHVSDED [DLC1] | 5.61 ± 0.17 | 5.58 ± 0.32 | – | –
ERKPAATARLSRRGTSLSPPPESS [KISS1] | 5.16 ± 0.17 | 5.26 ± 0.17 | – | –
KIQASGETPNSLNTTVIPNGSMAM [LYSMD4] | 4.22 ± 0.097 | 4.09 ± 0.2 | – | –

Sequence | protein stability index [1] | protein stability index [2] | protein stability index [3] | protein stability index [4]
YDCGEDFYRSTAPSEDIWKKFELV [MYCL] | 2.96 ± 0.19 | 3.33 ± 0.22 | – | –
VLEHSLDREEEAIHHLVLTASDGG [PCDHGA10] | 4.66 ± 0.18 | 4.84 ± 0.17 | – | –
DSHYGTKGLKKVVHETPAASKTVF [BTBD1] | 4.05 ± 0.095 | 4.14 ± 0.28 | – | –
ECMLLVFGIDVKEVDPTGHSFVLV [MAGEA10] | 2.82 ± 0.44 | 2.8 ± 0.66 | – | –
LPHQSHRQRSSLAKINIVYQELNY [SCNN1D] | 2.54 ± 0.23 | 2.54 ± 0.3 | – | –
YKCSWCGKSFSQNTNLHTHQRTHT [ZNF75A] | 4.65 ± 0.45 | 4.29 ± 0.54 | – | –
LPRKDYESLDYDRCINDPYLEVLE [CLCN6] | 3.4 ± 0.24 | 3.58 ± 0.18 | – | –
TVFYIPEDHKPGTFPKALTNGSFS [DLC1] | 2.86 ± 0.14 | 3.11 ± 0.26 | – | –
MGGSGSRLSKELLAEYQDLTFLTK [CIB1] | 3.175 ± 0.031 | 3.27 ± 0.28 | – | –
KCLVTEAQTLLRLSGVQRVESVFF [RSAD1] | 2.53 ± 0.43 | 2.4 ± 0.25 | – | –
SEMLDITMKESLTTREIRRQEAIY [NET1] | 3.75 ± 0.18 | 3.91 ± 0.33 | – | –
QLKEEMARHLREYQELLNVKMALD [PRPH] | 3.32 ± 0.22 | 3.5 ± 0.36 | – | –
LMFLDICSELNKLCQHFEAVHSGT [SPACA9] | 2.67 ± 0.72 | 2.4 ± 0.29 | – | –
ITDLPRIDVSKREPPPVKQELPPY [EFHC1] | 4.37 ± 0.033 | 4.45 ± 0.17 | – | –
AEEAEDHGRIPDPDDFVPPVPPPS [FAM189A2] | 5.52 ± 0.24 | 5.51 ± 0.06 | – | –
SWTGDGWEFKLSDPDEVARRWGKR [ETS1] | 3.73 ± 0.062 | 3.88 ± 0.25 | – | –
AAAHASVDIKDVLDFYKQWKEIG [SMG5] | – | – | 3.45 ± 0.3 | 3.54 ± 0.55
HRAVASRSEEAVQVLIKHSADVNA [ANKRD44] | 4.5 ± 0.28 | 4.47 ± 0.31 | – | –
LNELERLSNLVGKPSENHPLHNSG [MED27] | 4.06 ± 0.25 | 4.31 ± 0.24 | – | –
YKEKFGITDLPRIDVSKREPPPVK [EFHC1] | 3.67 ± 0.38 | 4.04 ± 0.23 | – | –
FRRGPAPQDQAGPGGAPRVASRNL [CLPTM1] | 4.63 ± 0.17 | 4.25 ± 0.3 | – | –
SGLIQTVFISSYMVLAPVFGYLGD [SPNS1] | 3.5 ± 0.3 | 3.16 ± 0.22 | – | –
AGVLTIALPVPVIVSNFNYFYHRE [KCNA4] | 2.6 ± 0.21 | 2.84 ± 0.79 | – | –

Sequence | protein stability index [1] | protein stability index [2] | protein stability index [3] | protein stability index [4]
LHKFPYRMVPALPPKRMLGADREF [SNX8] | 2.55 ± 0.15 | 2.67 ± 0.32 | – | –
VKCFNDLKAEELLLKIHEVSTVSH [CASP6] | 2.23 ± 0.24 | 2.44 ± 0.16 | – | –
RRATSGGKWPQVLFFPEGTCSNKK [LPCAT4] | 3.72 ± 0.31 | 3.78 ± 0.13 | – | –
LGKTEQGFENMDFFTLDLEHIADA [TRIM63] | 3.85 ± 0.21 | 3.8 ± 0.12 | – | –
RKLLNRHNIVFGDYTWTEFDEPFL [TRIP13] | 2.24 ± 0.24 | 2.64 ± 0.22 | – | –
PESQFPEFSTSLFSGSLEPVACGS [SRPK2] | 4.21 ± 0.26 | 4.29 ± 0.064 | – | –
FPFQAMVQFHRHHGQEGSILVTKV [GMPPB] | 2.22 ± 0.37 | 2.07 ± 0.15 | – | –
LQKLSALLMTADILAETGIRKTVK [ELOA2] | 2.48 ± 0.64 | 2.34 ± 0.45 | – | –
AKTFHLVNPNGQKQQLVDAFLKLA [FAN1] | 2 ± 0.36 | 2.05 ± 0.17 | – | –
GMLKEGVRLDRVRGGRQKYKRRID [ESRRG] | 4.19 ± 0.14 | 4.15 ± 0.33 | – | –
TCSNKKALLKFKPGAFIAGVPVQP [LPCAT4] | 2.85 ± 0.4 | 3.03 ± 0.19 | – | –
SSPAGLSREYKLVMLGAGGVGKSA [RIT1] | 3.17 ± 0.62 | 2.96 ± 0.22 | – | –
SKLEERFGPDSKSSALACTLPTLP [NCF4] | 4.04 ± 0.19 | 4.21 ± 0.17 | – | –
SPVTATLSDEDDGFVDLLDGENLK [CDC25A] | 5.4 ± 0.21 | 5.52 ± 0.13 | – | –
QPHHQPPNRAGAPGESLECPAELR [TRAF3IP2] | 5.42 ± 0.23 | 5.21 ± 0.23 | – | –
FDSSRQRAEGTDIPTVKPLKPRPE [ZC2HC1A] | 5.02 ± 0.099 | 5.09 ± 0.14 | – | –
PTPPGQYFYPRGGGSGGGAGGAGG [JUNB] | 4.81 ± 0.15 | 4.5 ± 0.16 | – | –
SSGEDKENDGFVFKMPWKPTHPSS [CDC25B] | 3.92 ± 0.22 | 4.16 ± 0.25 | – | –
APAGDKGFQPPSPSLRPRPASSIS [DMRTC1] | 4.61 ± 0.15 | 4.57 ± 0.26 | – | –
DLTVGRAPTADDDDDDHDDHEDND [NOL4L] | 5.56 ± 0.18 | 5.5 ± 0.15 | – | –
